Assay results published in patent publication EP2767548A2 (Argen-X B.V., dated 2014).

Target: Human CD16 (biotinylated, Sino Biological Inc, cat#10389-H27H1-B) (human, UniProt P08637 17-208, biotinylated)
Assay: ELISA, biotinylated CD16 captured on neutravidin, anti-human Fab-HRP detection

Human CD16 (biotinylated, Sino Biological Inc, cat#10389-H27H1-B), sequence (P08637 17-208): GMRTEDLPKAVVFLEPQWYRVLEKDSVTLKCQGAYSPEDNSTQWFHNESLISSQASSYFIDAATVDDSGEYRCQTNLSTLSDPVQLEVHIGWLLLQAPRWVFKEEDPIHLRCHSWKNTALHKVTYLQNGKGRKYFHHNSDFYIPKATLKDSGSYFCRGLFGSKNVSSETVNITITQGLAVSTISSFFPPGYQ

EC50: 3.58 µg/mL
B1: IgG3-MAB1 (antibody)
chain 1: QLLLQESGPGLVKPSETLSLTCTVSGGSLSSSFSYWVWIRQPPGKGLEWIGTIYYSGNTYYNPSLKSRLTISVDTSKNHFSLKLSSVTAADTAVYYCARRAGILTGYLDSWGQGTLVTVSS
chain 2: SYVLTQSPSVSVAPGQTARITCGGNNIGSKSVHWYQQKPGQAPVLVVYDDSDRPSGIPERFSASNSGNTATLTISRVEAGDEADYYCQVWDSSSDHVVFGGGTKLTVL
